The target in this test is HLA-A*02:01 (human). The test is described as follows: UV-ligand exchange + anti-b2m ELISA; ++++ = peptide exchange yield >75%. (In general: ELISA stands for enzyme-linked immunosorbent assay.)

B1: … (peptide)
peptide: KLLETKWTL
modifications: not checked
Turning to B1, the peptide exchange yield was > 75%.
